Experimental data published in patent publication US20100047245A1 (AbbVie / Abbott, published 2010).

B1: 1D4-Chim (antibody, human IgG1, V domains shown)
VH: QVTLKESGPGILQPSQTLSLTCSFSGFSLRKSVMGVSWIRQPSGKGLEWLAHIYWDDDKYYNPSLKSRLTISKDPSRNQVFLKITSVDTADAATYYCTRRGIRSAMDYWGQGTSVTVSS
VL: SVVMTQTPKFLLVSAGDRVTITCKASQSVSNDVAWYQQKPGQSPKLLIYYASNRYTGVPDRFTGSGYGTDFTFIISTVRAEDLAVYFCQQDYNSPWTFGGGTKLEIKR
B2: 1A6-Chim (antibody, human IgG1, V domains shown)
VH: QVTLKESGPGILKPSQTLSLTCSFSGFSLSTSGMGVSWIRQPSGKGLEWLAHIWWDGDNYYNPSLKSQLTISKDTSRNQVFLRIATVDTADTATYYCARRTRVNYAMDYWGQGTSVTVSS
VL: SVVMTQTPKFLLVSAGDRVTITCKASQSVSNDVAWFQQKPGQSPKLLIYYASNRYTGVPDRFTGSGYGTDFTFTISTVQAEDLAVYFCQQDYNSPWTFGGGTKLEIKR
B3: 3G7-Chim (antibody, human IgG1, V domains shown)
VH: QVQLQQSGAELMKPGASVKISCKATGYTFNDYWIEWVKQRPGHGLEWIGGFSHGSGSTNYNEKFKGKATFTADSSSNTAYMQLSSLTSEDSAVYYCARRRFRGMDYWGQGTSVTVSS
VL: SIVMTQTPKFLLVSAGDRVTITCKASQSVSNDVAWYQQKPGQSPKLLIYYASNRYTGVPDRFTGSGYGTDFTFTITTVQAEDLAVYFCQQDYSSPWSFGGGTKLEIKR
B4: 8E1-Chim (antibody, human IgG1, V domains shown)
VH: EVKLVESGGGLVQPGGSRKLSCAASGFTFSDYGMVWVRQAPGKGLEWVASISSGSSNIYYADTVKGRFTISRDDPNNTLFLQMRSLRSEDTAMYYCARNPYWGQGTTLTVSS
VL: DIVMTQSQKFMSTSVGDRVSVTCKASQNVGTNVAWYQQKPGQSPKGLIYSASHRYSGVPDRFAGSGSGTDFTLTISNVQSEDLAEYFCQQYNSYPLTFGGGTKLELKR

Each binder was assayed against recombinant purified cyno IL-12 p70 (cynomolgus monkey) (assay: cell-based or functional assay).
Sequence of recombinant purified cyno IL-12 p70 (cynomolgus monkey) (P48095 23-328, chain 1 of 2): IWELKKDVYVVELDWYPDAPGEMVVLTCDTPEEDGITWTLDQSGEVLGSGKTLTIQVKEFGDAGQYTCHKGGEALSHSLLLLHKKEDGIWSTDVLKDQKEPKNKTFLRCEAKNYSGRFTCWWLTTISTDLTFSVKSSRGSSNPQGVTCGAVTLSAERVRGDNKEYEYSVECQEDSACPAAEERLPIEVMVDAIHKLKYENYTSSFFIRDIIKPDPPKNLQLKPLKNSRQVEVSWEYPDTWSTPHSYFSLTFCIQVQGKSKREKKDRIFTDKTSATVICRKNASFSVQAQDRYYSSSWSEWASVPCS
Sequence of recombinant purified cyno IL-12 p70 (cynomolgus monkey) (P48091 23-219, chain 2 of 2, further chain): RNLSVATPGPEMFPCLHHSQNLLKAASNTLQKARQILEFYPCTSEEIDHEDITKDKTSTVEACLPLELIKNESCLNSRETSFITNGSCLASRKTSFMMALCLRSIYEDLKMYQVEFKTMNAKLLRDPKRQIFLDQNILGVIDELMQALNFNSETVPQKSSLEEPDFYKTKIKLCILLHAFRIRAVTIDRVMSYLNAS

Binder	Average IC50 (nM) Cyno IL-12; PHA blast IFN-gamma induction assay [nM]
B1	0.07
B2	0.02
B3	0.32
B4	0.15
